Experimental data reported in article PMC3411905.

B1: Cnn (natural protein)
chain: MNSNRTSSSHNSRNLKILNASFDVPRPPGGGNSPLPSQGRSVRELEEQMSALRKENFNLKLRIYFLEEGQPGARADSSTESLSKQLIDAKIEIATLRKTVDVKMELLKDAARAISHHEELQRKADIDSQAIIDELQEQIHAYQMAESGGQPVENIAKTRKMLRLESEVQRLEEELVNIEARNVAARNELEFMLAERLESLTACEGKIQELAIKNSELVERLEKETASAESSNEAIDSLKVELEACRKENQDLVTSIRTLKHDMKRQVRSMKEAANTMDVQRQSILLLEATIKRKEKSCGSMQKNVLNYEALIAKLNAELETMRQQNVYFRELSENLQQKEVRQLDRGVAIVQPMRMTADAGRFVWQSGTIVAQEPLPLERQSAAATSNVSVSAVRLSSGPPPDQTYPVNGHDRAKYGLLQLFAAKLDWISAVPLALGHLALKIILLAMRLHSCLQNVHIPLRANRDLGAQLADKICELQEAQEKLKERERIHEQACRTIQKLMQKLSSQEKEIKKLNQENEQSANKENDCAKTVISPSSSGRSMSDNEASSQEMSTNLRVRYELKINEQEEKIKQLQTEVKKKTANLQNLVNKELWEKNREVERLTKLLANQQKTLPQISEESAGEADLQQSFTEAEYMRALERNKLLQRKVDVLFQRLADDQQNSAVIGQLRLELQQARTEVETADKWRLECVDVCSVLTNRLEELAGFLNSLLKHKDVLGVLAADRRNAMRKAVDRSLDLSKSLNMTLNITATSLADQSLAQLCNLSEILYTEGDASHKTFNSHEELHAATSMAPTVENLKAENKALKKELEKRRSSEGQRKERRSLPLPSQQFDNQSESEAWSEPDRKVSLARIGLDETSNSLAAPEQAISESESEGRTCATRQDRNRNSERIAQLEEQIAQKDERMLNVQCQMVELDNRYKQEQLRCLDITQQLEQLRAINEALTADLHAIGSHEEERMVELQRQLELKNQQIDQLKLAHSTLTADSQITEMELQALQQQMQEIEQLHADSVETLQSQLQKLKLDAVQQLEEHERLHREALERDWVALTTYQEQAQQLLELQRSLDYHQENEKELKQTLVENELATRALKKQLDESTLQASKAVMERTKAYNDKLQLEKRSEELRLQLEALKEEHQKLLQKRSNSSDVSQSGYTSEEVAVPMGPPSGQATTCKQAAAAVLGQRVNTSSPDLGIESDAGRISSVEVSNAQRAMLKTVEMKTEGSASPKAKSEESTSPDSKSNVATGAATVHDCAKVDLENAELRRKLIRTKRAFEDTYEKLRMANKAKAQVEKDIKNQILKTHNVLRNVRSNMENEL

The molecules below were run against Sas-4-NΔT GST (Drosophila) (UniProt Q9VI72) (assay: pull-down).
“Asl (from UniProt Q9VNE4 1-994) (natural protein)” gave a fold amount pulled down relative to Sas-4-N of 3 times.
Work on Grip128 (natural protein) yielded a fold amount pulled down relative to Sas-4-N of 3 times.
“γ-tubulin (from UniProt P23257 1-475) (natural protein)” was tested, and the fold amount pulled down relative to Sas-4-N was 3 times.
Work on B1 yielded a fold amount pulled down relative to Sas-4-N of 3 times.
